Patent US20070269440A1, “Stimulators of osteoblastogenesis and applications of the same” (Board of Trustees of the University of Arkansas, priority 2006, published 2007)

Columns and labels:
[1] = system: distracted tibia of 21-month-old C57BL6 mice; experiment: Distraction osteogenesis in aged mice, new bone in DO gap by single-beam radiography; type: in vivo, mouse; conditions: 21-month old mice, sTNF-RI 8.0 mg/kg s.c. every other day, 3-day latency, 14 days of distraction; control 27.3±8.4%, p<0.038
Excerpt: For initial radiography a Xerox Micro 50 closed system radiography unit (Xerox, Pasadena, Calif.) was used at 40 kilovolts (3 mA) for 20 seconds with Kodak X-OMAT film to radiograph the specimens. For quantitation, the radiographs and histology slides are video recorded by radio camera under low power (1.25× objective) microscopic magnification and transferred into a computer (Macintosh IIx Image 1.28c). The radiographs allow for quantitation of mineralized bone within the distraction gap. The measured distraction gap area was outlined from the outside corners of the two proximal and the two distal cortices forming a quadrilateral region of interest. The mineralized new bone area in the gap was determined by outlining the regions with radiodensity equivalent to or greater than the adjacent medullary bone. Mean pixel density of the defined distraction gap was measured using NIH Image on an arbitrary 256 degree scale. […] The percentage of new mineralized bone area within the distraction gap (% new bone) was calculated by dividing mineralized bone area/gap area. (6, 7).
Twenty-four 21-month-old C57BL6 mice underwent placement of an external fixator and osteotomy to the left tibia. The surgeries were completed over a four-day period. After surgeries there were eleven mice in the control group (one died during surgery) and twelve mice in the group to be treated with sTNF-RI. […]

[2] = system: distracted tibia of 21-month-old C57BL6 mice; experiment: Distraction osteogenesis in aged mice, new bone in DO gap by histology; type: in vivo, mouse; conditions: 21-month old mice, sTNF-RI 8.0 mg/kg s.c. every other day, 3-day latency, 14 days of distraction; control 31.2±12.4%, p<0.009
Excerpt: After radiography, the distracted tibiae were decalcified in 5% formic acid. The specimens were paraffin-embedded and cut into 5-7 micron longitudinal (coronal) sections on a microtome (Leitz 1512, Wetzlar, Germany) for staining (hematoxylin & eosin). The sections chosen for analysis were selected to represent a central or near central gap location. This was accomplished by choosing slides that contained all four full thickness cortices with intact marrow spaces on both the proximal and distal ends of the distraction gap. All organized osteoid/sinusoid columns were defined as new bone. We defined periosteal new bone as that outside of each cortex and endosteal new bone as that within the cortices. […] The distraction gap area was outlined from the outside corners of the two proximal and the two distal cortices forming a quadrilateral region of interest, and the area of that region (gap area) was recorded. Both the proximal and distal endosteal new bone matrix, which is easily distinguished from the central fibrous tissue at the PMF, was outlined and the area recorded (new bone area). The percentage of new bone within the distraction gap was calculated by dividing new bone area/gap area (8, 9-11). […]

B1: sTNF-RI: soluble TNF receptor Type I, a TNF blocker (TNF antagonist) (protein, UniProt P19438 30-211, looked up)
extracellular domain: LVPHLGDREKRDSVCPQGKYIHPQNNSICCTKCHKGTYLYNDCPGPGQDTDCRECESGSFTASENHLRHCLSCSKCRKEMGQVEISSCTVDRDTVCGCRKNQYRHYWSENLFQCFNCSLCLNGTVHLSCQEKQNTVCTCHAGFFLRENECVSCSNCKKSLECTKLCLPQIENVKGTEDSGTT
modifications: extracellular domain
Mineralization of the DO gap, as measured from the radiographs (% of the distraction gap) [1]: 55.2±8.8 % SEM | Mineralization of the DO gap, as measured histologically (% of the distraction gap) [2]: 76.1±7.5 % SEM
